Measurements from article PMC533864, “Selective inhibition of c-Myb DNA-binding by RNA polymers”.

Experiments:
c-Myb R2R3 = c-Myb R2R3 (Homo sapiens, UniProt P10242 89-192); assay: EMSA; 20 mM Tris-HCl pH 8.0, 0.1 mM EDTA, 10% glycerol, 0.1 mM DTT, 0.005% Triton X-100, 50 mM NaCl, RNAguard 6-20 U, 20 uL, 25 C, 15 min; conditions: protein: recombinant; label: 32P
c-Myb NR1R2R3 = c-Myb NR1R2R3 (Homo sapiens, UniProt P10242 1-192); assay: as above; conditions: protein: recombinant; label: 32P
c-Myb NR1R2R3, sequence (P10242 1-192): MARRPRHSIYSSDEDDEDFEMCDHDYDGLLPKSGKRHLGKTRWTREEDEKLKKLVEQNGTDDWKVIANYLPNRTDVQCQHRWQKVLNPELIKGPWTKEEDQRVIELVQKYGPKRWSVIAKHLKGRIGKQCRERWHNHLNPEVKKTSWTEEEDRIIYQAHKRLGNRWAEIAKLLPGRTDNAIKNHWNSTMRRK

c-Myb R2R3, sequence (P10242 89-192): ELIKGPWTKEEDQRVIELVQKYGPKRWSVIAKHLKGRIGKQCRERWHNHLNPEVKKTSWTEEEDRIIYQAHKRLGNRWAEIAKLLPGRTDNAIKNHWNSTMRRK

B1: MRE probe (mim-1 promoter) (dsDNA)
DNA 1: GCATTATAACGGTTTTTTAGCGC
DNA 2: GCGCTAAAAAACCGTTATAATGC
**Q.** Does B1 bind (c-Myb R2R3)?
**A.** binds

**Q.** Does B1 bind (c-Myb NR1R2R3)?
**A.** binds
